Reference: PMC8826899

Legend:
[1] = biological target: HSPA8-GST (recombinant full-length monkey HSPA8 with GST tag) (monkey)
[2] = biological target: HSPA8-GST (recombinant full-length monkey HSPA8 with GST tag) (monkey); remark: listed apart in the source

PRRSV virions (PRRSV-2 strain BJ-4) (complex)
PRRSV infectivity (IFA) in MARC-145 cells whose surface HSPA8 (endogenous) was blocked with 16- and 32-fold diluted mouse HSPA8-GST pAbs [1]: 75 % decrease
PRRSV titers (TCID50) in MARC-145 cells whose surface HSPA8 (endogenous) was blocked with 16-fold diluted mouse HSPA8-GST pAbs; decrease (log10TCID50/mL) [1]: 1
PRRSV RNA abundance (RT-qPCR, 24 h) in MARC-145 cells after PRRSV (0.1 MOI) was pre-incubated with soluble HSPA8-GST (0.5, 1, 2 μM); GST protein 2 μM as control [2]: 50 % reduction
